[NapdU] = code of the source, not defined here
Assays:
[1] = target: T1, cell surface human TREM2 on primary human M2a macrophages (Homo sapiens, UniProt Q9NZC2); assay: TREM2 surface stabilization by SOMAmers on primary human M2a macrophages (flow cytometry); format: cell-based; settings: 37° C. for 3 hours
T1 construct: Human M2a macrophages were generated from monocytes isolated from buffy coats; endogenous in cells; host or cells: primary human M2a macrophages differentiated from buffy-coat monocytes (MCSF + IL4)
T1 sequence (Q9NZC2 19-230): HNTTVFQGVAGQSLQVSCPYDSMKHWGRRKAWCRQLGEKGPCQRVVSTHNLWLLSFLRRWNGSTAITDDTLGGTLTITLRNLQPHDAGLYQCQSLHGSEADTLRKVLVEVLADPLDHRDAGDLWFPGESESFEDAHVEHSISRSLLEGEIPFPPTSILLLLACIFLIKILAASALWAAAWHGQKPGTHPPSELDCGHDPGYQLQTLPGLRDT
Method: Human M2a macrophages were generated from monocytes isolated from buffy coats by negative selection. M2a macrophages were generated by 5-6 days differentiation of monocytes in RPMI (supplemented 10% fetal bovine serum, and typical concentrations of Glutamax, Sodium pyruvate, Non Essential Amino Acids, HEPES) with MCSF 40 ng/mL (R&D) and 50 ng/mL IL4 (R&D). M2a macrophages were harvested with cell dissociation buffer (Gibco 13151-014) and cell surface TREM2 was assessed by flow cytometry as described below.
Cells were stained for TREM2 surface expression in FACS buffer (PBS, containing 10% heat-inactivated human serum AB male (Invitromex), 0.05% w/v sodium azide, 5 mM EDTA, 1 mg/mL Privigen (Mg) in PBS using goat anti-human TREM2 (R&D) or an appropriate isotype control. Cells were counterstained with F(ab)′2 fragments of an rabbit anti-goat IgG polyclonal antibody conjugated with Alexa488 (LifeTechnologies). All stainings were performed on ice for 30 min Cells were assessed for TREM2 surface expression on a BD LSR Fortessa or a FacsCalibur flow cytometer. Median fluorescence intensities corresponding to the degree of anti-TREM2 bound to cells were evaluated using FlowJo (Millipore INC)
TREM2 SOMAmers were tested for their ability to stabilize or increase cell surface human TREM2, e.g., by modulating homeostatic dynamics of shedding or internalization. […]

[2] = target: T2, cell surface human TREM2 on CHO-hTREM2 cells (Homo sapiens, UniProt Q9NZC2); assay: TREM2 surface stabilization by SOMAmers on CHO-hTREM2 cells (flow cytometry); format: cell-based; settings: 37° C. for 3 hours
T2 construct: expressed in transfected cells; host or cells: CHO cells, stably double transfected (G418 / hygromycin)
T2 sequence (O43914 22-113 partner, one chain of several): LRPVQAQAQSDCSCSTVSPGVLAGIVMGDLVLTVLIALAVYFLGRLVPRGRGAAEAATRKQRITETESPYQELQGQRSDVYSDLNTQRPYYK
Method: A HEK cell line stably expressing a chimeric receptor consisting of TREM2-extracellular domain and DAP12 was first described by Kleinberger et al. 2014. In analogy a TREM-2/DAP12 chimeric receptor expressing cell line was produced according to standard cell culture procedures. CHO cells were sequentially transfected with eukaryotic expression vectors for human DAP12 (hDAP12) and human TREM2 (hTREM2). Resulting CHO-hTREM2/hDAP12 double transfected cells (CHO-hTREM2) were grown in DMEM/F12 medium supplemented with 10% fetal bovine serum 0.2 mg/ml G418 and 0.2 mg/mL hygromycin. Confluent adherent CHO cells were harvested after treatment with cell dissociation buffer (Gibco 13151-014) and cell surface TREM2 was quantified by flow cytometry as described below. […]
TREM2 SOMAmers were tested for their ability to stabilize or increase cell surface human TREM2, e.g., by modulating homeostatic dynamics of shedding or internalization. […] Cells were then assessed for surface human TREM2 by flow cytometry.

[3] = target: T2, cell surface human TREM2 on CHO-hTREM2 cells; assay: Binding of biotinylated SOMAmers to cellular TREM2 by flow cytometry; format: cell-based; settings: CHO-hTREM2 vs CHO control cells; on ice; streptavidin-APC detection
Method: A HEK cell line stably expressing a chimeric receptor consisting of TREM2-extracellular domain and DAP12 was first described by Kleinberger et al. 2014. In analogy a TREM-2/DAP12 chimeric receptor expressing cell line was produced according to standard cell culture procedures. CHO cells were sequentially transfected with eukaryotic expression vectors for human DAP12 (hDAP12) and human TREM2 (hTREM2). Resulting CHO-hTREM2/hDAP12 double transfected cells (CHO-hTREM2) were grown in DMEM/F12 medium supplemented with 10% fetal bovine serum 0.2 mg/ml G418 and 0.2 mg/mL hygromycin. Confluent adherent CHO cells were harvested after treatment with cell dissociation buffer (Gibco 13151-014) and cell surface TREM2 was quantified by flow cytometry as described below.
Binding of SOMAmers to cellular TREM2 was assessed by incubation of biotinylated SOMAmers at various concentrations with CHO-hTREM2 cells. In this case binding of SOMAmers to cell surface TREM2 was done on ice for 20-30 min to prevent modulation of cell surface TREM2. […] Cells were thereafter washed with FACS buffer and bound biotinylated SOMAmers were detected via streptavidin-APC conjugate (Biolegend, Inc). Median fluorescence intensities corresponding to the degree of TREM2 SOMAmer bound to cells were acquired on a FacsCalibur flow cytometer and evaluated using FlowJo (Millipore INC).

[4] = target: T3, human TREM2 stalk region Peptide 77
T3 chain: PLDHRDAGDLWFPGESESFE

[5] = target: T4, human TREM2 stalk region Peptide 80
T4 chain: ESESFEDAHVEH

[6] = target: T5, human TREM2 stalk region Peptide 79
T5 chain: VEVLADPLDHRD

[7] = target: T6, human TREM2 stalk region Peptide 78
T6 chain: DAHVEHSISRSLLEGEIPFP

[8] = target: T7, human TREM2 stalk region Peptide 76
T7 chain: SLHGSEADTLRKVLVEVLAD

KX86-94WC: TREM2 SOMAmer, core sequence SEQ ID NO: 13, P = NapdU modified dUTP residue (DNA CCCTCUGUCAACCUCCACACAGGCCUUUGAUGCAAGUAUACAGUGGAAGA; DNA, [NapdU] at 6, 8, 14, 26, 27, 28, 31, 37, 39, 44, backbone and methylation of C not given here; further chemistry not fully specified)
cell surface human TREM2 level (stabilization) [1]: stabilized cell surface human TREM2 | cell surface human TREM2 level (stabilization) [2]: stabilized cell surface human TREM2

EX83-95HC: control SOMAmer, core sequence SEQ ID NO: 14 (DNA CCCTCCCUAUCGCAAUGACACAUUGGGGUCUCGAGGUGCGCGAUCGAAGA; DNA, [NapdU] at 8, 10, 16, 23, 24, 29, 31, 37, 44, backbone and methylation of C not given here; further chemistry not fully specified)
binding to cell surface human TREM2 [3]: did not bind to cell surface human TREM2

UX95-90BC: TREM2 SOMAmer (slow off-rate modified aptamer), core sequence SEQ ID NO: 12, P = NapdU modified dUTP residue (DNA CCCTCGAUCCGGUGGCGGAUCCUAAGUAUUGGCCCGGUCCGCCAAGAAGA; DNA, [NapdU] at 8, 13, 20, 23, 27, 29, 30, 38, backbone and methylation of C not given here; further chemistry not fully specified)
cell surface human TREM2 level (stabilization) [2]: stabilized and increased cell surface human TREM-2

B1: Human TACE (ADAM-17) recombinant catalytic domain (protein)
chain: RADPDPMKNTCKLLVVADHRFYRYMGRGEESTTTNYLIELIDRVDDIYRNTSWDNAGFKGYGIQIEQIRILKSPQEVKPGEKHYNMAKSYPNEEKDAWDVKMLLEQFSFDIAEEASKVCLAHLFTYQDFDMGTLGLAYVGSPRANSHGGVCPKAYYSPVGKKNIYLNSGLTSTKNYGKTILTKEADLVTTHELGHNFGAEHDPDGLAECAPNEDQGGKYVMYPIAVSGDHENNKMFSNCSKQSIYKTIESKAQECFQERSNKV
TACE cleavage of the Mca-labelled peptide (HPLC/HRMS) [4]: no TACE cleavages were observed for Peptides 76, 79, 77 and 80 | TACE cleavage of the Mca-labelled peptide (HPLC/HRMS) [5]: no TACE cleavages were observed for Peptides 76, 79, 77 and 80 | TACE cleavage of the Mca-labelled peptide (HPLC/HRMS) [6]: no TACE cleavages were observed for Peptides 76, 79, 77 and 80 | TACE cleavage of the Mca-labelled peptide (HPLC/HRMS) [7]: For Peptide 78, two main cleavage products by TACE were found: DAHVEH (termed X01, SEQ ID NO: 25) and SISRSLLEGEIPFP (termed X02, SEQ ID NO: 26) | TACE cleavage of the Mca-labelled peptide (HPLC/HRMS) [8]: no TACE cleavages were observed for Peptides 76, 79, 77 and 80
